Laboratory results published in ChEMBL document CHEMBL1126004, “Synthesis and resolution of 7-fluorotryptophans” (Bioorg Med Chem Lett, 1991).

How the values were obtained:
[1] = substrate: N[C@@H](Cc1c[nH]c2c(F)cc(F)cc12)C(=O)O; assay: (§1) Compound was evaluated for Michaelis-Menten constant (Km) in a reaction with tryptophan indole-lyase (tryptophanase) from Escherichia coli
[2] = substrate: N[C@@H](Cc1c[nH]c2c(F)ccc(F)c12)C(=O)O; assay: as §1
[3] = substrate: N[C@@H](Cc1c[nH]c2c(F)cccc12)C(=O)O; assay: as §1
[4] = substrate: N[C@@H](Cc1c[nH]c2ccccc12)C(=O)O; assay: as §1
[5] = substrate: N[C@@H](Cc1c[nH]c2c(F)cc(F)cc12)C(=O)O; assay: (§2) Compound was evaluated for relative maximum velocity (Vmax) in a reaction with tryptophan indole-lyase (tryptophanase) from Escherichia coli
[6] = substrate: N[C@@H](Cc1c[nH]c2c(F)ccc(F)c12)C(=O)O; assay: as §2
[7] = substrate: N[C@@H](Cc1c[nH]c2c(F)cccc12)C(=O)O; assay: as §2
[8] = substrate: N[C@@H](Cc1c[nH]c2ccccc12)C(=O)O; assay: as §2

B1: Tryptophan 2,3-dioxygenase (Homo sapiens), P48775 (protein)
chain: MSGCPFLGNNFGYTFKKLPVEGSEEDKSQTGVNRASKGGLIYGNYLHLEKVLNAQELQSETKGNKIHDEHLFIITHQAYELWFKQILWELDSVREIFQNGHVRDERNMLKVVSRMHRVSVILKLLVQQFSILETMTALDFNDFREYLSPASGFQSLQFRLLENKIGVLQNMRVPYNRRHYRDNFKGEENELLLKSEQEKTLLELVEAWLERTPGLEPHGFNFWGKLEKNITRGLEEEFIRIQAKEESEEKEEQVAEFQKQKEVLLSLFDEKRHEHLLSKGERRLSYRALQGALMIYFYREEPRFQVPFQLLTSLMDIDSLMTKWRYNHVCMVHRMLGSKAGTGGSSGYHYLRSTVSDRYKVFVDLFNLSTYLIPRHWIPKMNPTIHKFLYTAEYCDSSYFSSDESD
Question: With B1 as the protein, how does the Km [1] read?
Answer: The Km was 490 µM.

Question: What about the Km [2] of the same protein?
Answer: Its Km is 1700 µM.

Question: What about the Km [3] of the same protein?
Answer: The Km was 640 µM.

Question: What about the Km [4] of the same protein?
Answer: The Km was 260 µM.

Question: What about the Vmax [5] of the same protein?
Answer: The Vmax was 58%.

Question: What about the Vmax [6] of the same protein?
Answer: The Vmax was 42%.

Question: And the Vmax [7]?
Answer: Its Vmax is 29%.

Question: What about the Vmax [8] of the same protein?
Answer: Its Vmax is 100%.
